US20050048512A1 (published 2005)
“And” between values parts separate entries of the source, which are not always exact repeats. Equal entries are not always repeated.

Columns and labels:
CD28 on human PBMC = CD28 on human PBMC (human, UniProt P10747 19-220); test: cell-based or functional assay
CD28 on monkey PBMC = CD28 on monkey PBMC (monkey (cynomolgus), UniProt Q0PDN3 19-220); test: cell-based or functional assay
CD28 [1] = molecular target: T1, CD28 (UniProt P10747 19-152, limits assumed); test: ELISA, 10 ng CD28 per well, serial dilutions of protein, anti-HA-HRP detection
T1 construct: Purified CD28 immobilized by NHS/EDC coupling (Biacore) or hydrophobic adsorption (ELISA); also called target protein CD28

CD28 [2] = molecular target: T1, CD28; test: Biacore, CD28 on CM5 chip, 0.5 and 5 uM protein in flow
[3] = molecular target: T2, CD20 on Raji or Daudi cells (UniProt P11836 1-297, limits assumed); test: phage clone on Raji or Daudi cells with or without 1 mg/mL Rituxan
T2 construct: whole, on cells
T2 sequence (looked up): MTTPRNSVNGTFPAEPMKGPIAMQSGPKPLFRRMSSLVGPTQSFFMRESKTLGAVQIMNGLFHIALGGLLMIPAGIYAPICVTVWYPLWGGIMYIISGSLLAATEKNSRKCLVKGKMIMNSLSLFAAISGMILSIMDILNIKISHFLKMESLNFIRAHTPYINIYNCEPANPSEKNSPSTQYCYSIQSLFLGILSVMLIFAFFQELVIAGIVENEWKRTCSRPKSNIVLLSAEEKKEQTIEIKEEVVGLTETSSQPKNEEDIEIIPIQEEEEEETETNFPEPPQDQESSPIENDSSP

B1: CD28-A10 (designed binder)
chain: CGPGRFQCESGQCVPATWVCDGDDDCADGSDEKSCATTAPTCESNQFQCGSGQCLPGTWRCDGVNDCADSSDETGCGRPGPGATSAPAACGPGRFQCNNGNCVPQTLGCDGDNDCGDSSDEANCSAPASEPPGSL
notes: LDL receptor A-domain trimer; also called CD28 10; CD28 trimer clone 10
IC50, PBMC assay on human cells (3H thymidine incorporation) (CD28 on human PBMC): 3 nM and 40 ng/ml
IC50, PBMC assay on monkey cells (3H thymidine incorporation) (CD28 on monkey PBMC): 7 nM
ELISA (column head; quantity not named) (CD28 [1]): 1.7e-10
Kd (CD28 [2]): 29 nM

CRRNEFRCKSGHCVPQPLVCDGVRDCEDNSDEPSCGRPGPGATSAPAA (designed binder) [CD20 binding sequence 9]
binding result [3]: binds

CLPERFQCAVPGYCIPLPGVCDGVNDCQEDSDEPNCRAPGLR (designed binder) [CD20 binding sequence 8]
binding result [3]: binds
